Patent publication US20160136280A1, “STABLE INTRAVENOUS FORMULATION” (HOFFMANN-LA ROCHE INC., priority 2013, published 2016)

Tests used:
Water solubility = format: physicochemical
Oxidation stability = format: physicochemical; settings: base compound is the major oxidation product
Light stability = format: physicochemical; settings: forms the base compound and other degradants

Compound	solubility in water (Water solubility)	sensitivity to oxidation (Oxidation stability)	sensitivity to light (Light stability)	hydrolysis kinetics in aqueous solutions (aqueous solutions, base compound is the major degradation product)	most stable pH range (from stability perspective)
COCCOCCOC(=O)OC(C)OC(=O)c1ccc(NC(=O)[C@@H]2N[C@@H](CC(C)(C)C)[C@](C#N)(c3ccc(Cl)cc3F)[C@H]2c2cccc(Cl)c2F)c(OC)c1 (stereo partly drawn) [Compound A, 4-{[(2R, 3S, 5S)-4-(4-chloro-2-fluoro-phenyl)-3-(3-chloro-2-fluoro-phenyl)-4-cyano-5-(2,2-dimethyl-propyl)-pyrrolidine-2-carbonyl]-amino}-3-methoxy-benzoic Acid 1-[2-(2-methoxy-ethoxy)-ethoxycarbonyloxy]-ethyl ester]	relatively more soluble in water	vulnerable to oxidation	light sensitive	first-order kinetics	3-5 pH
COc1cc(C(=O)O)ccc1NC(=O)[C@@H]1N[C@@H](CC(C)(C)C)[C@](C#N)(c2ccc(Cl)cc2F)[C@H]1c1cccc(Cl)c1F [base compound, 4-{[(2R,3S,4R,5S)-3-(3-chloro-2-fluoro-phenyl)-4-(4-chloro-2-fluoro-phenyl)-4-cyano-5-(2,2-dimethyl-propyl)-pyrrolidine-2-carbonyl]-amino}-3-methoxy-benzoic acid]	practically water insoluble	–	–	–	–
